Where two headings read alike, the source gives them in different places.

On the set-up of data set [1]: species or system human. To be noted: in vivo. As for the experimental part: (§1) This example evaluated the effects of two strengths of oral SYN-004 (75 mg or 150 mg) administered twice in six hours on the plasma pharmacokinetics (PK) and chyme concentrations of a single dose of ceftriaxone administered as an intravenous (IV) infusion (1 g infused over 30 minutes). Further, this example evaluated if SYN-004 was present in chyme, if there was absorption of SYN-004 into plasma, and the safety and tolerability of SYN-004 (75 mg or 150 mg) in combination with IV ceftriaxone.
This was a Phase 1, randomized, multi-center, open-label study. Ten otherwise healthy subjects with functioning ileostomies who were between the ages of 18 and 80 years, inclusive, were enrolled. As an overview, in the first treatment period (Period 1) all subjects received an IV infusion of 1 gram (g) ceftriaxone. In the second treatment period (Period 2) all subjects received an IV infusion of 1 g ceftriaxone and 2 doses of either 75 mg or 150 mg of SYN-004, according to the randomization schedule, and administered 30 minutes before and 5.5 hours after the ceftriaxone infusion. Subjects were screened for study participation within 45 days prior to Check-in (Day −1), and the entire duration of the study may be up to 64 days (from Screening to the end-of-study visit).
The active dosage form of SYN-004 being administered was a hard gelatin, size 0, opaque white capsule containing delayed-release mini-pellets. Subjects randomized to Treatment AB received two oral doses of SYN-004 75 mg (1×75 mg capsule) twice in one day on Day 1 of Period 2. Subjects randomized to Treatment AC received two oral doses of SYN-004 150 mg (2×75 mg capsules) twice in one day on Day 1 of Period 2.
Specifically, in Period 1, all subjects received an IV infusion of 1 g ceftriaxone administered over 30 minutes on Day 1. In Period 2, subjects again received an IV infusion of 1 g ceftriaxone administered over 30 minutes on Day 1, as well as two oral doses of SYN-004 (75 mg or 150 mg) 30 minutes before and 5.5 hours after the IV infusion of 1 g ceftriaxone. All subjects received an infusion of ceftriaxone 1 g over 30 minutes in Period 1 and a second identical, time matched infusion in Period 2. The exact time of day of dosing for consecutive subjects may be staggered (±1 hour) to accommodate sample collection logistics; however, the time of day of ceftriaxone administration on Day 1 in Periods 1 and 2 were consistent for each subject.
With respect to meals and fluid intake, on Day 1 in each period, subjects received a small non-fatty meal approximately 1 hour (7:00 AM) prior to administration of ceftriaxone and again 5 hours after the start of infusion (1:00 PM). Subjects received full meals at approximately 2 and 7.5 hours after the start of the infusion (10:00 AM and 3:30 PM), respectively. In order to generate sufficient chyme output, subjects drank 8 ounces of water or apple juice at the start of the infusion and at 0.5, 1, and 1.5 hours after the start of the infusion (i.e., every half hour between 8:00 AM and 9:30 AM); thereafter, subjects were encouraged to drink 8 ounces of water or apple juice hourly between 2 and 7 hours after the start of the infusion (10:00 AM to 3:00 PM).
On Day 1, Period 1, serial blood and chyme samples were collected from approximately 30 minutes pre-dose through approximately 7 hours for serial blood and 8.5 for chyme after the start of infusion for determination of ceftriaxone concentration. […]

The nature of data set [2]: Phase 1b/2a ileostomy study (Example 5): ceftriaxone plasma concentration. It is filed as in vivo, human. To be noted: 1 g IV with and without oral SYN-004 75 or 150 mg. Here is the method:
as §1
This was a Phase 1, randomized, multi-center, open-label study. Ten otherwise healthy subjects with functioning ileostomies who were between the ages of 18 and 80 years, inclusive, were enrolled. […]
Pharmacokinetics: Serial blood (5 mL each) and chyme samples (2 mL minimum) were collected on Day 1 of Period 1 and Period 2. The following PK parameters of SYN-004 and ceftriaxone were determined from the plasma and chyme concentration-time data for all evaluable subjects using non-compartmental methods: maximum observed plasma concentration (Cmax), area under the concentration-time curve from time 0 to the last quantifiable concentration (AUCt), and time to reach Cmax (Tmax) as applicable. In addition, area under the concentration-time curve from time 0 to infinity (AUC∞) was calculated where determinable.

The next data set addresses SYN-004 (Bacillus licheniformis, UniProt P00808, D288N). Put plainly: SYN-004 activity in human intestinal chyme in the presence of beta-lactamase inhibitor (ceftriaxone by LC/MS-MS). It is filed as biochemical. To be noted: 20 mg/ml Sulbactam, 8 ug/ml SYN-004. Here is the method:
Ceftriaxone (at 3 ug/ml or 1500 ug/ml) was mixed with human intestinal chyme alone, or with chyme plus SYN-004 (8 ug/ml) or with chyme plus the beta-lactamase inhibitor sulbactam, (20 mg/ml) or chyme plus both and then the samples were flash frozen. The flash frozen samples were thawed on ice and sulbactam was added to some samples, the protein was precipitated with acetonitrile and the samples were analyzed for ceftriaxone concentration by LC/MS-MS. The table below provides results from triplicate samples.

For data set [3] the following is noted: human, in vivo, po. Here is the method:
A Phase 1, double blind, placebo controlled study was carried out to assess the safety, tolerability, and pharmacokinetics (PK) of SYN-004 in healthy adult subjects. Specifically, a single dose of oral SYN-004 capsule (75 mg, 150 mg, 300 mg, 600 mg, or 750 mg) was administered to subjects. Blood samples were collected for PK evaluation and determination of anti-SYN-004 antibodies. A total of 40 healthy adult subjects were enrolled in the study with 6 active and 2 placebo subjects per cohort.

For data set [4] the following is noted: human, in vivo. As for the experimental part: (§2) A Phase 1, double blind, randomized, placebo controlled study was carried out to assess the safety, tolerability, and PK of SYN-004 in healthy adult subjects. Specifically, multiple doses of oral SYN-004 capsules (75 mg, 150 mg, or 300 mg) were administered to the subjects at 4 doses per day for 7 days. Blood samples were collected for PK evaluation and determination of anti-SYN-004 antibodies. A total of 24 healthy adult subjects were enrolled in the study with 6 active and 2 placebo subjects per cohort.

On the set-up of data set [5]: species or system human. To be noted: in vivo, po. Here is the method:
as §2

Sequence of SYN-004 (P00808 44-307 D288N): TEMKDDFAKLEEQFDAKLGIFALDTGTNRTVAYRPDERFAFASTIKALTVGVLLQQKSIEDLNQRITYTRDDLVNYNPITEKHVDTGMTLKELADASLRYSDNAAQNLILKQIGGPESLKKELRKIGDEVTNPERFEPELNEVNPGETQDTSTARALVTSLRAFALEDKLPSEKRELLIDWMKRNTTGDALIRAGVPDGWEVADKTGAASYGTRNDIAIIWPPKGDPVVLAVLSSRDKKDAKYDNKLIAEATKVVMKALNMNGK

Turning to `CO/N=C(\C(=O)N[C@@H]1C(=O)N2C(C(=O)O)=C(CSc3nc(=O)c(=O)[nH]n3C)CS[C@H]12)c1csc(N)n1` [Ceftriaxone], in data set [1] (human), the “time ceftriaxone appeared in the chyme” value lay within 1.5 to 2.5 h and the “time of second peak of ceftriaxone in chyme” value was in the range of 6 to 8 h. The “peak ceftriaxone in chyme” value in data set [1] (human, iv) was in the range of 115 to 1400 µg/mL. In data set [2], the “plasma concentration of ceftriaxone, Period 1 versus Period 2” value was “no significant difference”.
For `CC1(C)[C@H](C(=O)O)N2C(=O)C[C@H]2S1(=O)=O` [Sulbactam, sulbactam], the “inhibition of SYN-004 activity in intestinal chyme” value at SYN-004 is “did not substantially inhibit SYN-004 activity”.
Take “SYN-004: beta-lactamase with the amino acid sequence of SEQ ID NO: 1; given orally as delayed-release capsule of enteric-coated pellets”: in data set [3], the systemic bioavailability entry was “not systemically bioavailable”. Also, in data set [3] (750 mg), the “Cmax (plasma)” value is 1.4 ng/mL and the “Tmax (plasma)” value was in the range of 1 to 4 h. Also, in data set [4], the systemic bioavailability entry is given as “not systemically bioavailable”. For the same compound, the anti-SYN-004 antibodies result in data set [5] is recorded as “No anti-SYN-004 antibodies were detected”. For the same compound, in data set [1], the “degradation of ceftriaxone in chyme” value is reported as “effectively degraded ceftriaxone” and the “time measurable SYN-004 began to be detectable in the chyme” value was determined as 5.5 h.

(Values after patent US11872268B2, “Safe and effective beta-lactamase dosing for microbiome protection” (Theriva Biologics, Inc., priority 2015, dated 2024).)
